± gives the standard deviation of the averaged measurements.
Legend:
Saccharomyces cerevisiae [1] = assay: protein stability index of tFT-peptide fusion (C-terminal peptide) (PSI (0-1 scale)); higher = more stable (slower turnover)
Protocol: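 MPS profiling in S. cerevisiae of the tFT-X12 degron library: putative degron peptides plus stable controls, 12 aa, fused to the C-terminus of a sfGFP-mCherry timer. Cells are FACS-sorted into 8 mCherry/sfGFP bins and deep-sequenced. PSI runs from 0 (unstable) to 1 (stable). Backgrounds are wild type, das1Δ and doa10Δ at 30 °C, and wild type, das1Δ, cdc34-1 and cdc53-1 at 37 °C; 2-3 technical replicates each.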

Saccharomyces cerevisiae [2] = assay: as above; conditions: genetic background: wild type; temperature: 30 C
[3] = genetic background: cdc34-1, temperature: 37 C
[4] = genetic background: cdc53-1, temperature: 37 C
[5] = genetic background: das1 deletion, temperature: 30 C
[6] = genetic background: das1 deletion, temperature: 37 C
[7] = genetic background: doa10 deletion, temperature: 30 C
[8] = genetic background: wild type, temperature: 30 C
[9] = genetic background: wild type, temperature: 37 C
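Note: PSI is a weighted mean of sequencing reads over stability bins, variants kept only with over 10 reads, mCherry proximal and sfGFP distal, peptide attached via GGGS linker.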

Sequence | protein stability index (Saccharomyces cerevisiae [1]; [3]) | protein stability index (Saccharomyces cerevisiae [1]; [4]) | protein stability index (Saccharomyces cerevisiae [1]; [5]) | protein stability index (Saccharomyces cerevisiae [1]; [6]) | protein stability index (Saccharomyces cerevisiae [1]; [7]) | protein stability index (Saccharomyces cerevisiae [1]; [8]) | protein stability index (Saccharomyces cerevisiae [1]; [9]) | protein stability index (Saccharomyces cerevisiae [2])
PHRLSRFILRLL | 0.562 ± 0.027 | 0.683 ± 0.014 | 0.65 ± 0.033 | 0.703 ± 0.013 | 0.118 ± 0.0059 | 0.119 ± 0.019 | 0.219 ± 0.015 | 0.194 ± 0.041
PLCLFPPLLVFL | 0.492 ± 0.044 | 0.526 ± 0.034 | 0.411 ± 0.024 | 0.556 ± 0.021 | 0.453 ± 0.022 | 0.387 ± 0.02 | 0.5103 ± 0.0047 | 0.462 ± 0.032
PLFLLTFAITLV | 0.0736 ± 0.0086 | 0.194 ± 0.06 | 0.166 ± 0.024 | 0.277 ± 0.018 | 0.152 ± 0.0066 | 0.146 ± 0.028 | 0.2289 ± 0.00087 | 0.272 ± 0.021
PLLLLLPSLLLV | 0.363 ± 0.027 | 0.413 ± 0.011 | 0.3 ± 0.029 | 0.439 ± 0.021 | 0.149 ± 0.0015 | 0.18 ± 0.017 | 0.248 ± 0.013 | 0.25 ± 0.025
PLRRPSWVVLSS | 0.671 ± 0.024 | 0.7218 ± 0.0037 | 0.638 ± 0.014 | 0.727 ± 0.0099 | 0.357 ± 0.024 | 0.38 ± 0.029 | 0.5802 ± 0.0041 | 0.493 ± 0.0029
PPIPTPSPIPLH | 0.66 ± 0.018 | 0.726 ± 0.0011 | 0.653 ± 0.017 | 0.695 ± 0.021 | 0.667 ± 0.011 | 0.658 ± 0.017 | 0.677 ± 0.015 | 0.7119 ± 0.0055
PPPHPPPATFLS | 0.661 ± 0.029 | 0.692 ± 0.0097 | 0.676 ± 0.02 | 0.729 ± 0.022 | 0.401 ± 0.023 | 0.407 ± 0.021 | 0.596 ± 0.026 | 0.479 ± 0.011
PPPPPPPSSSSL | 0.667 ± 0.041 | 0.735 ± 0.027 | 0.672 ± 0.017 | 0.722 ± 0.011 | 0.674 ± 0.013 | 0.696 ± 0.037 | 0.727 ± 0.03 | 0.388 ± 0.0099
PPTHDSPVWSPS | 0.677 ± 0.06 | 0.721 ± 0.023 | 0.672 ± 0.029 | 0.7438 ± 0.0025 | 0.667 ± 0.017 | 0.687 ± 0.02 | 0.7217 ± 0.0029 | 0.743 ± 0.0086
PPVAYVCHLYVT | 0.589 ± 0.058 | 0.614 ± 0.029 | 0.5 ± 0.017 | 0.6058 ± 0.0045 | 0.309 ± 0.031 | 0.335 ± 0.028 | 0.503 ± 0.013 | 0.428 ± 0.0053
PPVLAPHLCFPP | 0.685 ± 0.008 | 0.736 ± 0.0089 | 0.657 ± 0.0043 | 0.739 ± 0.015 | 0.673 ± 0.028 | 0.675 ± 0.019 | 0.713 ± 0.019 | 0.724 ± 0.018
PRTTHTPLLIAS | 0.566 ± 0.046 | 0.6584 ± 0.003 | 0.54 ± 0.012 | 0.662 ± 0.03 | 0.177 ± 0.012 | 0.205 ± 0.025 | 0.296 ± 0.046 | 0.296 ± 0.021
PSFLAIRVCLLV | 0.0466 ± 0.00074 | 0.0881 ± 0.02 | 0.147 ± 0.034 | 0.211 ± 0.0098 | 0.0853 ± 0.02 | 0.0766 ± 0.01 | 0.0987 ± 0.036 | 0.133 ± 0.021
PSPRLSLPPRLP | 0.631 ± 0.01 | 0.729 ± 0.029 | 0.677 ± 0.016 | 0.731 ± 0.017 | 0.71 ± 0.037 | 0.686 ± 0.024 | 0.6948 ± 0.002 | 0.737 ± 0.022
PSPRRPPRSRFP | 0.651 ± 0.023 | 0.725 ± 0.028 | 0.653 ± 0.0072 | 0.7355 ± 0.0031 | 0.672 ± 0.03 | 0.654 ± 0.037 | 0.701 ± 0.017 | 0.732 ± 0.0084
PSPYSLSPYFLV | 0.678 ± 0.032 | 0.74 ± 0.011 | 0.646 ± 0.013 | 0.7674 ± 0.0074 | 0.255 ± 0.013 | 0.302 ± 0.043 | 0.4902 ± 0.0013 | 0.425 ± 0.044
PSRLSFALLFHL | 0.6483 ± 0.00029 | 0.682 ± 0.017 | 0.645 ± 0.018 | 0.7268 ± 0.0049 | 0.395 ± 0.025 | 0.406 ± 0.039 | 0.545 ± 0.0058 | 0.49 ± 0.025
PTAGFFGLLVLV | 0.361 ± 0.0094 | 0.402 ± 0.035 | 0.294 ± 0.029 | 0.439 ± 0.005 | 0.279 ± 0.0034 | 0.286 ± 0.02 | 0.4087 ± 0.00047 | 0.397 ± 0.005
PVHARYCSLKWA | 0.658 ± 0.037 | 0.741 ± 0.021 | 0.6329 ± 0.0026 | 0.7389 ± 0.0042 | 0.237 ± 0.036 | 0.279 ± 0.013 | 0.5159 ± 0.0024 | 0.373 ± 0.087
PWGVGLACLFLL | 0.469 ± 0.017 | 0.683 ± 0.016 | 0.585 ± 0.017 | 0.736 ± 0.022 | 0.0882 ± 0.025 | 0.096 ± 0.017 | 0.1134 ± 0.00036 | 0.126 ± 0.025

From the supplement of paper PMC10724198
